The results in this text go back to patent US20240174727A1, “LONG-ACTING NATRIURETIC PEPTIDES AND USES THEREOF” (Eli Lilly and Company, priority 2022, published 2024).

Numbering of substitutions follows the chain as printed. Numbered stars: 1 amine (or outer) side, 2 acyl side, 3 side chain; on linkers, the order of the positions; unused ones are H or OH. Bridge positions count the residues as written; N and C are the ends. Square brackets hold non-standard residues; d marks the D form. * marks the point of attachment. C20 diacid = O=C(O)CCCCCCCCCCCCCCCCCCC(=O)*; γGlu = O=C(O)[C@H](CCC(=O)[*:2])N[*:1]; 4Pal = N[C@@H](Cc1ccncc1)C(=O)O

The chains are these.
T1: human NPRA (human, UniProt P16066 33-1061)
T1 sequence (looked up): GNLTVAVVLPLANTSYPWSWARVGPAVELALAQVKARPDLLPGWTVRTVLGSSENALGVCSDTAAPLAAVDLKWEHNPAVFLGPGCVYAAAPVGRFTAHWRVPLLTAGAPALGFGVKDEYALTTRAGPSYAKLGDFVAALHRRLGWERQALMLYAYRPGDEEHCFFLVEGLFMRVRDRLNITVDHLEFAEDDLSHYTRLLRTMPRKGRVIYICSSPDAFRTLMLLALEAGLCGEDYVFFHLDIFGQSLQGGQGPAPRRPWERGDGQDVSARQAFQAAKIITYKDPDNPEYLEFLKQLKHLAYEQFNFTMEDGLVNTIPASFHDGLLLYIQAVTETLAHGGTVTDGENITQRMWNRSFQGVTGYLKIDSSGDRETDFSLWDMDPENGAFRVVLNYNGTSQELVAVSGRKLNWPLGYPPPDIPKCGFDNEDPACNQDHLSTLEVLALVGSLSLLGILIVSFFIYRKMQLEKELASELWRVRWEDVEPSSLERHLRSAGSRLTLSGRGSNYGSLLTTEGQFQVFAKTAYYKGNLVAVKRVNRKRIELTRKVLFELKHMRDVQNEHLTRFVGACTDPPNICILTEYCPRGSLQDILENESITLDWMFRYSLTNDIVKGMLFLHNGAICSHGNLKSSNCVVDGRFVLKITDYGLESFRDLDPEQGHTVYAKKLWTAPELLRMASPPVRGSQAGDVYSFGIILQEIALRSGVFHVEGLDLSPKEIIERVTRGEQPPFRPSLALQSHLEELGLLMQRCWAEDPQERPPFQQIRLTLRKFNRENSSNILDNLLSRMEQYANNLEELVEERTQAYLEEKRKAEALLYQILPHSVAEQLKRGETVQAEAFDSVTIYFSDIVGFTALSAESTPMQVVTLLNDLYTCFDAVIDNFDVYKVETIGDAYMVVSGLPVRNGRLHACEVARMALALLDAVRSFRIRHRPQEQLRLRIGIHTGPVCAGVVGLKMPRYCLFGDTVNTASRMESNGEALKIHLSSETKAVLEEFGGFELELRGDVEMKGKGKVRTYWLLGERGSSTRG

T2: rat NPRA (rat, UniProt P18910 29-1057)
T2 sequence (looked up): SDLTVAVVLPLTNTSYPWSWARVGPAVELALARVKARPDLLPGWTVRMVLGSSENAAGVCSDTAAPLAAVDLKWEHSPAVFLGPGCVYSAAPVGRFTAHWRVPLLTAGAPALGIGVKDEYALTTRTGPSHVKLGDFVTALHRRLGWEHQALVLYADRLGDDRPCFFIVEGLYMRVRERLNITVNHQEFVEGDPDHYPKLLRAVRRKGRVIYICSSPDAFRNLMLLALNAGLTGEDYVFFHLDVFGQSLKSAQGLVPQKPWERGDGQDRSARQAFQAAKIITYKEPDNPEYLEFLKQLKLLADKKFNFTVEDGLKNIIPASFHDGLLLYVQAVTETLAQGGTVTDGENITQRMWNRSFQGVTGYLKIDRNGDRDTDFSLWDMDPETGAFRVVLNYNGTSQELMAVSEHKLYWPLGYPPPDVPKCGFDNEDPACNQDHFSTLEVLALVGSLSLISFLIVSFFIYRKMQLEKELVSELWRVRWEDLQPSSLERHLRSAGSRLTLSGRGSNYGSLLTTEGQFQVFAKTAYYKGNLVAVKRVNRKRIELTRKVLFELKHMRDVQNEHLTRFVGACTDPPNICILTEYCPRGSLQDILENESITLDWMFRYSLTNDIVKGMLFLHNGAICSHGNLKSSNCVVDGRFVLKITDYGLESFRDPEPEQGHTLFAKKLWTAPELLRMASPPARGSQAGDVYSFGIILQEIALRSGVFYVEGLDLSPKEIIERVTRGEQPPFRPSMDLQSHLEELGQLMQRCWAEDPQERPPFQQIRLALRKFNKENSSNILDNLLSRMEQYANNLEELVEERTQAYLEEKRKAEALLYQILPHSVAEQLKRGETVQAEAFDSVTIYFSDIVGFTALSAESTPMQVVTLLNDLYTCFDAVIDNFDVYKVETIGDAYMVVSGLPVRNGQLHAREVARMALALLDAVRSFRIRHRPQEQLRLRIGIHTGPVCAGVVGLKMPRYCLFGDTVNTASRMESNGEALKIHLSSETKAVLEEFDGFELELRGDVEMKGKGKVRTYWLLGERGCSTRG

T3: human NPRA (human, UniProt P16066 33-1061)
T3 sequence (looked up): T1 sequence (looked up)

T4: rat NPRA (rat, UniProt P18910 29-1057)
T4 sequence (looked up): T2 sequence (looked up)

B1: Example 18 (peptide)
peptide: {C20 diacid}-[γGlu]EKEKEKGSHRRSSCFGGRIDRIGAQSGLGCPSFRH-NH2
modifications: disulfide 15-31
SMILES: CC[C@H](C)[C@@H]1NC(=O)[C@H](CCCNC(=N)N)NC(=O)[C@H](CC(=O)O)NC(=O)[C@H]([C@@H](C)CC)NC(=O)[C@H](CCCNC(=N)N)NC(=O)CNC(=O)CNC(=O)[C@H](Cc2ccccc2)NC(=O)[C@@H](NC(=O)[C@H](CO)NC(=O)[C@H](CO)NC(=O)[C@H](CCCNC(=N)N)NC(=O)[C@H](CCCNC(=N)N)NC(=O)[C@H](Cc2c[nH]cn2)NC(=O)[C@H](CO)NC(=O)CNC(=O)[C@H](CCCCN)NC(=O)[C@H](CCC(=O)O)NC(=O)[C@H](CCCCN)NC(=O)[C@H](CCC(=O)O)NC(=O)[C@H](CCCCN)NC(=O)[C@H](CCC(=O)O)NC(=O)CC[C@H](NC(=O)CCCCCCCCCCCCCCCCCCC(=O)O)C(=O)O)CSSC[C@@H](C(=O)N2CCC[C@H]2C(=O)N[C@@H](CO)C(=O)N[C@@H](Cc2ccccc2)C(=O)N[C@@H](CCCNC(=N)N)C(=O)N[C@@H](Cc2c[nH]cn2)C(N)=O)NC(=O)CNC(=O)[C@H](CC(C)C)NC(=O)CNC(=O)[C@H](CO)NC(=O)[C@H](CCC(N)=O)NC(=O)[C@H](C)NC(=O)CNC1=O
B2: Example 20 (peptide)
peptide: {C20 diacid}-[γGlu]EKEKEKGS[4Pal]RRSSCFGGRIDRIGAQSGLGCPSFR[4Pal]-NH2
modifications: disulfide 15-31
SMILES: CC[C@H](C)[C@@H]1NC(=O)[C@H](CCCNC(=N)N)NC(=O)[C@H](CC(=O)O)NC(=O)[C@H]([C@@H](C)CC)NC(=O)[C@H](CCCNC(=N)N)NC(=O)CNC(=O)CNC(=O)[C@H](Cc2ccccc2)NC(=O)[C@@H](NC(=O)[C@H](CO)NC(=O)[C@H](CO)NC(=O)[C@H](CCCNC(=N)N)NC(=O)[C@H](CCCNC(=N)N)NC(=O)[C@H](Cc2ccncc2)NC(=O)[C@H](CO)NC(=O)CNC(=O)[C@H](CCCCN)NC(=O)[C@H](CCC(=O)O)NC(=O)[C@H](CCCCN)NC(=O)[C@H](CCC(=O)O)NC(=O)[C@H](CCCCN)NC(=O)[C@H](CCC(=O)O)NC(=O)CC[C@H](NC(=O)CCCCCCCCCCCCCCCCCCC(=O)O)C(=O)O)CSSC[C@@H](C(=O)N2CCC[C@H]2C(=O)N[C@@H](CO)C(=O)N[C@@H](Cc2ccccc2)C(=O)N[C@@H](CCCNC(=N)N)C(=O)N[C@@H](Cc2ccncc2)C(N)=O)NC(=O)CNC(=O)[C@H](CC(C)C)NC(=O)CNC(=O)[C@H](CO)NC(=O)[C@H](CCC(N)=O)NC(=O)[C@H](C)NC(=O)CNC1=O
B3: Example 16 (peptide)
peptide: {C20 diacid}-[γGlu]EKEKEKGSHRRSSCFHGRIDRIHAQSGLGCNSFRH-NH2
modifications: disulfide 15-31
SMILES: CC[C@H](C)[C@@H]1NC(=O)[C@H](CCCNC(=N)N)NC(=O)[C@H](CC(=O)O)NC(=O)[C@H]([C@@H](C)CC)NC(=O)[C@H](CCCNC(=N)N)NC(=O)CNC(=O)[C@H](Cc2c[nH]cn2)NC(=O)[C@H](Cc2ccccc2)NC(=O)[C@@H](NC(=O)[C@H](CO)NC(=O)[C@H](CO)NC(=O)[C@H](CCCNC(=N)N)NC(=O)[C@H](CCCNC(=N)N)NC(=O)[C@H](Cc2c[nH]cn2)NC(=O)[C@H](CO)NC(=O)CNC(=O)[C@H](CCCCN)NC(=O)[C@H](CCC(=O)O)NC(=O)[C@H](CCCCN)NC(=O)[C@H](CCC(=O)O)NC(=O)[C@H](CCCCN)NC(=O)[C@H](CCC(=O)O)NC(=O)CC[C@H](NC(=O)CCCCCCCCCCCCCCCCCCC(=O)O)C(=O)O)CSSC[C@@H](C(=O)N[C@@H](CC(N)=O)C(=O)N[C@@H](CO)C(=O)N[C@@H](Cc2ccccc2)C(=O)N[C@@H](CCCNC(=N)N)C(=O)N[C@@H](Cc2c[nH]cn2)C(N)=O)NC(=O)CNC(=O)[C@H](CC(C)C)NC(=O)CNC(=O)[C@H](CO)NC(=O)[C@H](CCC(N)=O)NC(=O)[C@H](C)NC(=O)[C@H](Cc2c[nH]cn2)NC1=O
B4: HOOC-(CH2)18-CO-(γGlu)-EKEKEKG-PEG24-EK-βAla-RSS[CFGKRIDRIGHYSGLGC]PSFRHGGKSSGAPPPS-NH2 (peptide)
peptide: EKXRSSCFGKRIDRIGHYSGLGCPSFRHGGKSSGAPPPS
modifications: N-terminus acylated with HOOC-(CH2)18-CO-(γGlu)-; PEG24 after EKEKEKG; βAla; thioacetal linkage between the two bracketed Cys; C-terminal amide
B5: HOOC-(CH2)18-CO-(γGlu)-EKEKEKG-(AEEA)8-EK-βAla-RSS[CFGKRIDRIGHYSGLGC]PSFRHGSPSSGAPPPS-NH2 (peptide)
peptide: B4 peptide with G30S, K31P
modifications: N-terminus acylated with HOOC-(CH2)18-CO-(γGlu)-; (AEEA)8 after EKEKEKG; βAla; thioacetal linkage between the two bracketed Cys; C-terminal amide
B6: HOOC-(CH2)18-CO-(γGlu)-EKEKEKG-PEG24-S-4Pal-RRSS[CFGKRIDRIGHQSGLGC]PSFRHGGKSSGAPPPS-NH2 (peptide)
peptide: B4 peptide with E1S, K2X, X3R, Y18Q
modifications: N-terminus acylated with HOOC-(CH2)18-CO-(γGlu)-; PEG24 after EKEKEKG; 4Pal; thioacetal linkage between the two bracketed Cys; C-terminal amide

The target of one assay is T1, human NPRA. Description: cell-based or functional assay.
For the molecule B1, the “cGMP Assay (EC50, pM) w/BSA” value worked out at 17100 pM and the “cGMP Assay (EC50, pM) w/Casein” value is 460 pM.
The like results for B2 were, in that order, 129000 pM and 2900 pM.
In the same order, the values of B3 are 54700 pM and 807 pM.

A further assay has as its target T2, rat NPRA. Kind of assay: cell-based or functional assay.
With B1, the “cGMP Assay (EC50, pM) w/BSA” value was determined as 43200 pM and the “cGMP Assay (EC50, pM) w/Casein” value came to 693 pM.
Turning to B2, the “cGMP Assay (EC50, pM) w/BSA” value was 104000 pM and the “cGMP Assay (EC50, pM) w/Casein” value is 1390 pM.
As for B3, the “cGMP Assay (EC50, pM) w/BSA” value was 480000 pM and the “cGMP Assay (EC50, pM) w/Casein” value stood at 4070 pM.

For another assay, the target named is T3, human NPRA. Kind of assay: cell-based or functional assay.
In the case of B4, the “cGMP Assay (EC50, pM) w/BSA, hNPRA” value stood at 3490 pM.
For the molecule B5, the “cGMP Assay (EC50, pM) w/Casein, hNPRA” value worked out at 497 pM.
Turning to B6, the “cGMP Assay (EC50, pM) w/BSA, hNPRA” value was 2560 pM and the “cGMP Assay (EC50, pM) w/Casein, hNPRA” value turned out to be 488 pM.

A further assay addresses T4, rat NPRA. Description: cell-based or functional assay.
For B5, the “cGMP Assay (EC50, pM) w/Casein, rNPRA” value worked out at 11200 pM.
On to B6, for which the “cGMP Assay (EC50, pM) w/BSA, rNPRA” value stood at 276000 pM and the “cGMP Assay (EC50, pM) w/Casein, rNPRA” value came to 16800 pM.
